Data from patent US20210155689A1 (SHANGHAI PHARMAEXPLORER, published 2021).
Where a chain is given by its changes, count along the chain named.

T1: human LAG-3 protein with hFc tag (hLAG-3-hFc protein) (human, UniProt P18627 23-450)
T1 construct: also called immunogen 1; LAG-3 extracellular domain protein; not shown: human IgG Fc fragment (hFc) of the pCpC vector
T1 sequence: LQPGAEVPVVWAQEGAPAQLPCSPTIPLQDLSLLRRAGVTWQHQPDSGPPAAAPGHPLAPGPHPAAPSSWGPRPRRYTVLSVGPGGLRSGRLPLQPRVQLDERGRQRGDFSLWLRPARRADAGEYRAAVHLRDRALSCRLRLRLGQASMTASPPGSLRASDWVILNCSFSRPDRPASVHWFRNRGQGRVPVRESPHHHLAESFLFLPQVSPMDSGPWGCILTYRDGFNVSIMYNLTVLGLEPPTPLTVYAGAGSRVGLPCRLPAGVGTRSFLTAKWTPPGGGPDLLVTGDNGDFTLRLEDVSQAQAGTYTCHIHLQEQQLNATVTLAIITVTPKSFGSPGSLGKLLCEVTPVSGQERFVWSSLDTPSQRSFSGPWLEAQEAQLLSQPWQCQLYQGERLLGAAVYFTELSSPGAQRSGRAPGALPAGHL

T2: monkey LAG-3 (full length, on the cell surface) (monkey, UniProt P18627 24-525 (human entry))
T2 construct: also called HEK293-cLAG-3; monkey LAG-3 protein on the cell surface
T2 chain: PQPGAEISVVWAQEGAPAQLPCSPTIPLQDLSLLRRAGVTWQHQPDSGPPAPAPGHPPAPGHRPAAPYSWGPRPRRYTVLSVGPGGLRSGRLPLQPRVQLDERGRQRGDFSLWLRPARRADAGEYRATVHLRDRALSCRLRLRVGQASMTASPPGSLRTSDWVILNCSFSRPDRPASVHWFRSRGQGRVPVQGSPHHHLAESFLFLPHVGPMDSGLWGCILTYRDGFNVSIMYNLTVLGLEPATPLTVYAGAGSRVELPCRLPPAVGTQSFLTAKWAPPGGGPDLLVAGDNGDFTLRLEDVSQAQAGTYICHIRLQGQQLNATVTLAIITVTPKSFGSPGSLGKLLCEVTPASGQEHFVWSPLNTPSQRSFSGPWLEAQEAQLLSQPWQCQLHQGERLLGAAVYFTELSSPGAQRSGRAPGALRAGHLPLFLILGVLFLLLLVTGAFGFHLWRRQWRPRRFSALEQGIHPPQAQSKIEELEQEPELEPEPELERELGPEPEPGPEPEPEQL

T3: monkey LAG-3 on cells (HEK293-cLAG-3 stable cell line) (monkey, UniProt P18627 24-525 (human entry))
T3 construct: Full-length monkey (Chinese monkey) LAG-3 gene expressed on HEK293 cells
T3 chain: T2 chain

B1: 405B8H3 (mouse antibody purified from hybridoma) (antibody, V domains shown)
VH: QVQLQQSGAELVRPGASVTLSCKASGYTFTDYEMHWVKQTPVHGLEWIGATDPETGNSAYNQKFKGKAIMTADKSSSTAYMELRSLTSEDSAVYYCISTGWNDWGQGTSLTVSS
VL: DIKMTQSPSSMYASLGERVTITCKASQDINSYLSWFQQKPGKSPKTLIYRADRLLDGVPSRFSGSGSGQDYSLTISSLEYGDMGIYYCLQYDEFPYTFGGGTKLEIK
notes: also called mAb103-405B8H3; 405B81-13
B2: 409B11E12 (mouse antibody purified from hybridoma) (antibody, V domains shown)
VH: B1 VH with P41T, G56S, N57Y, M70L, S98A
VL: B1 VL with I2L, D52N, G81E
notes: also called mAb104-409B11E12
B3: 409D4E10 (mouse antibody purified from hybridoma) (antibody, V domains shown)
VH: B1 VH with Y27N, G56D, S58T, M70L, A72T, S98T, T99S
VL: B1 VL with D52N, G81E, D92N
notes: also called mAb112-409D4E10
B4: 556F6B8 (mouse antibody purified from hybridoma) (antibody, V domains shown)
VH: RVQLKQSGPGLVQPSQSLSITCTVSGFSLIKYGVHWVRQSPGEGLEWLGVIWRGGITDYNAAFMSRLSITKDNSKSQVFFKMNSLQADDTAIYYCAKWDGPLAMDYWGQGTSVTVSS
VL: DIVMTQSHKFLSTSVGDRVSITCKASQDVGTTVAWYQQKPGQSPKLLIYWASTRHTGVPDRFTGSGSGTDFTLTISNVQSEDLADYFCQQYSSYPYTFGGGTKLEIK
notes: also called mAb123-556F6B8
B5: 105F1E10 (mouse antibody purified from hybridoma) (antibody, V domains shown)
VH: EVQLQQSGPELVKPGASVKMSCRASGYTFTDFKMHWMKQSHGKSLEWIGYIAPNNGGTAYNQKFRGKATLTVNESSNTAYMELRSLTSEDSAVYYCVDWDDVDYWGQGTTLTVSS
VL: B1 VL with P40S, D52N, L55V, G81E, D92V, Y96L, G100A, I106L
notes: also called mAb009-105F1E10
B6: 105F1E10 (LAG-3 mouse-human chimeric antibody) (antibody, V domains shown)
VH: B5 VH
VL: B1 VL with P40S, D52N, L55V, G81E, D92V, Y96L, G100A, I106L
B7: 405B8H3 (LAG-3 mouse-human chimeric antibody) (antibody, V domains shown)
VH: B1 VH
VL: B1 VL
notes: also called mouse-human chimeric antibody 405B8H3
B8: 409B11E12 (LAG-3 mouse-human chimeric antibody) (antibody, V domains shown)
VH: B1 VH with P41T, G56S, N57Y, M70L, S98A
VL: B1 VL with I2L, D52N, G81E
B9: 409D4E10 (LAG-3 mouse-human chimeric antibody) (antibody, V domains shown)
VH: B1 VH with Y27N, G56D, S58T, M70L, A72T, S98T, T99S
VL: B1 VL with D52N, G81E, D92N
B10: 556F6B8 (LAG-3 mouse-human chimeric antibody) (antibody, V domains shown)
VH: B4 VH
VL: B4 VL
notes: also called 556F8B8
B11: 556F6B8 mouse-human chimeric antibody (antibody, V domains shown)
VH: B4 VH
VL: B4 VL
notes: also called mAb123-556F6B8; 556F8B8
B12: 105F1E10 mouse-human chimeric antibody (antibody, V domains shown)
VH: B5 VH
VL: B1 VL with P40S, D52N, L55V, G81E, D92V, Y96L, G100A, I106L
notes: also called mAb009-105F1E10
B13: 405B8H3 mouse-human chimeric antibody (antibody, V domains shown)
VH: B1 VH
VL: B1 VL
notes: also called mAb103-405B8H3
B14: 409B11E12 mouse-human chimeric antibody (antibody, V domains shown)
VH: B1 VH with P41T, G56S, N57Y, M70L, S98A
VL: B1 VL with I2L, D52N, G81E
notes: also called mAb104-409B11E12
B15: 409D4E10 mouse-human chimeric antibody (antibody, V domains shown)
VH: B1 VH with Y27N, G56D, S58T, M70L, A72T, S98T, T99S
VL: B1 VL with D52N, G81E, D92N
notes: also called mAb112-409D4E10

Biological target: T1, human LAG-3 protein with hFc tag …
Assay: FACS, blocks LAG-3-hFc binding to MHC II on Raji; 0.000 nM
Description: (§1) The FACS reaction plate incubating the Raji cells was centrifuged to discard the supernatant. The above mixture was added as 100 μl per well to Raji cells and incubated on ice for 1-2 hours. The plate was washed twice with blocking solution (PBS, 2% fetal bovine serum) by centrifugation, added with 100 microliters of fluorescent (Alexa 488)-labeled secondary antibodies per well, and incubated on ice for 1.0 hours. The plate was washed 2-3 times by centrifugation with blocking solution (PBS, 2% fetal bovine serum), added with 100 microliters of PBS per well to suspend cells, and detected using FACS (FACS Calibur, BD) and the results were analyzed. Wherein, the IgG control was murine IgG, and the data in the table is the inhibition rate (%).

Binder | Inhibition rate (%)
B1 | 0.3
B2 | -21.2
B3 | -21.4
B4 | -10.7
B5 | -14

Biological target: T2, monkey LAG-3 (full length, on the cell …)
Assay: FACS, HEK293-cLAG-3; 0.000 nM
Excerpt: (§2) The pIRES plasmid with the monkey-derived full-length gene was transfected into the HEK293 cell line to construct a HEK293 stable cell line containing monkey LAG-3 (herein referred to as HEK293-cLAG-3 stable cell line). The HEK293-hLAG-3 stable cell line and HEK293-cLAG-3 stable cell line were expanded in a T-75 cell culture flask to a 90% confluence. The medium was aspirated, and the cells were washed with HBSS (Hanks' Balanced Salt Solution) 1-2 times, then treated with a enzyme-free cell dissociation fluid (Versene solution: Life technology) and the cells were collected. The cells were washed with HBSS buffer for 1-2 times. After counted, the cells were diluted with HBSS to 1-2×10⁶ cells per ml, added with 1% goat serum blocking solution, incubated on ice for 20-30 minutes, and then washed with HBSS for 2 times by centrifugation. The collected cells were suspended in the FACS buffer (HBSS+1% BSA) to 2×10⁶ cells/ml, added as 100 microliters per well to a 96-well FACS reaction plate, added with 100 microliters per well of the antibody sample to be tested, incubated on ice for 1-2 hours. The plate was washed twice with the FACS buffer by centrifugation, added with 100 microliters of fluorescent (Alexa 488)-labeled secondary antibodies per well, and incubated on ice for 0.5-1.0 hours. The plate was washed 2-3 times with FACS buffer by centrifugation, added with 100 μl fixative solution (4% Paraformaldehyde) per well to suspend the cells. 5-10 minutes later, it was washed 1-2 times with FACS buffer by centrifugation. The cells were suspended with 100 microliters of FACS buffer, FACS (FACSCalibur, BD) was used for detection and the results were analyzed.

Binder | Mean fluorescence intensity [MFI]
B1 | 3.9
B2 | 3
B3 | 3
B4 | 3.4
B5 | 3.9

Biological target: T1, human LAG-3 protein with hFc tag …
Assay: ELISA, hLAG-3-hFc coated; 0.0001 nM
Description: The plate was sealed with plastic film and incubated overnight at 4° C. The plate was washed 2 times with the plate washing solution (PBS+0.01% Tween20) on the next day, and added with the blocking solution (PBS+0.01% Tween20+1% BSA) and blocked at room temperature for 1-2 hours. The blocking solution was poured out, and the plate was added with 50-100 μl of the antibody sample to be tested to each well, incubated at 37° C. for 1-2 hours, and washed 2-3 times with a plate washing solution (PBS+0.01% Tween20). HRP (horseradish peroxidase) labeled secondary antibody was added, and the plate was incubated at 37° C. for 1-2 hours, and washed 2-3 times with a plate washing solution (PBS+0.01% Tween20). 100 μl of TMB substrate was added to each well. After incubated at room temperature for 15-30 minutes, the plate was added with 100 μl of stop solution (1.0N HCl) to each well.

Binder | OD450 [OD450]
B6 | 0.13
B7 | 0.11
B8 | 0.12
B9 | 0.13
B10 | 0.13

Biological target: T1, human LAG-3 protein with hFc tag …
Assay: FACS, blocks LAG-3-hFc binding to MHC II on Raji; 0.274 nM
Description: as §1

Binder | Inhibition rate (%)
B1 | 2.1
B2 | -3.9
B3 | -7.5
B4 | 6
B5 | -8.3

Biological target: T1, human LAG-3 protein with hFc tag …
Assay: FACS, blocks LAG-3-hFc binding to MHC II on Raji; 66.667 nM
Description: as §1

Binder | Inhibition rate (%)
B1 | 94
B2 | 95.5
B3 | 96
B4 | 95.9
B5 | 93.6

Biological target: T3, monkey LAG-3 on cells (HEK293-cLAG-3 …)
Assay: FACS, HEK293-cLAG-3, antibody 0.320 nM
Excerpt: as §2

Binder | Mean fluorescence intensity
B11 | 8.37
B12 | 5.72
B13 | 10.3
B14 | 11.6
B15 | 8.96
